No end group written: not given here.
B1: α-casein: model protein substrate bovine α-casein (protein, UniProt P02662 16-214, looked up)
Alpha-S1-casein: RPKHPIKHQGLPQEVLNENLLRFFVAPFPEVFGKEKVNELSKDIGSESTEDQAMEDIKQMEAESISSSEEIVPNSVEQKHIQKEDVPSERYLGYLEQLLRLKKYKVPQLEIVPNSAEERLHSMKEGIHAQQKEPMIGVNQELAYFYPELFRQFYQLDAYPSGAWYYVPLGTQYTDAPSFSDIPNPIGSENSEKTTMPLW

Tests used:
[1] = test system: proteolytic enzymes of Candida albicans; test: Sensitivity to proteolytic enzymes of Candida albicans (cell lysate, SDS-PAGE); assay type: in vitro ADME; conditions: for stability to proteolysis by yeast: up to 72 h
Procedure: (§1) For study of Lc-def sensitivity to the clinical isolate of C. albicans, lysates of yeast cells in different concentration and pH were used basically as previously described for rhesus macaque θ-defensin 1 [22]. Cells were inoculated onto modified YPD medium and grown at 37 ℃ for 48 h before reaching the stationary phase of growth. Cells were harvested by centrifugation, washed two times in sterile phosphate buffered saline (PBS), pH 7.2, or sterile 40 mM sodium acetate, pH 4.0, and resuspended in the corresponding buffer to final concentrations of 1 × 10^9 cells/mL or 1 × 10^3 cells/mL. Two freeze-thaw cycles in liquid nitrogen were used for cell disruption, and supernatants were collected following centrifugation. Supernatants (12.5 μL) were mixed with water solutions (37.5 μL) of Lc-def, α-casein, Psd1, or LL-37 in concentration of 0.67 mg/mL and incubated at 37 ℃ for 72 or 24 h in the case of high or low cell concentration, respectively. To study the possible influence of Lc-def and Psd1 on the degradation process, supernatants (12.5 μL) were mixed with both α-casein or LL-37 in concentration of 1 mg/mL (25 μL) and Lc-def or Psd1 in concentration of 2 mg/mL (12.5 μL). As negative controls, α-casein and peptides were mixed with buffers as well as supernatants were mixed with water without the proteins. The samples were mixed with sample buffer without β-mercaptoethanol (BME), heated at 100 ℃ for 2 min, and analyzed by sodium dodecyl sulfate polyacrylamide gel electrophoresis (SDS-PAGE). Some independent experiments were performed in each case.

[2] = test system: proteolytic enzymes of Candida albicans; test: Influence of defensins on degradation of proteins by C. albicans lysate; assay type: biochemical; conditions: C. albicans lysate 10^3 cells/mL, pH 7.2, up to 24 h, SDS-PAGE
Procedure: as §1

[3] = CD spectroscopy, secondary structure at different pH and temperature; assay type: physicochemical; conditions: far-UV CD, 30 µM, 10 mM phosphate buffer pH 7.4
Procedure: Circular dichroism spectra were recorded at different temperatures using a J-810 spectropolarimeter (Jasco, Hachioji, Tokyo, Japan) in a 0.1 cm path length quartz cell (Hellma GmbH and Co. KG, Mullheim, Germany) in the 190–250 nm range 0.2 using solutions of Lc-def in 10 mM phosphate buffer, pH 7.4, or 150 mM sodium chloride, pH 2.5, simulated gastric fluid, at a concentration of 30 µM. Lysolipids were added at final concentration of 1 mM.

C. albicans = conditions: at 20 μM; cited from earlier work
Procedure: Here, we investigated an ability of Lc-def to inhibit the growth of clinical isolates of Candida albicans, C. krusei, and C. glabrata. An antifungal activity against Candida species has been shown previously for some plant defensins. For example, the pea defensin Psd1 at the concentration of 20 μM and PvD1 from the common bean at 18.4 μ ...

[4] = test system: pepsin, trypsin, α-chymotrypsin; test: Simulated gastrointestinal digestion in vitro; assay type: in vitro ADME, porcine pepsin and trypsin, bovine α-chymotrypsin; conditions: pepsin, 0.1 M HCl pH 2.0 (data not shown)
Description: Digestive enzymes (porcine pepsin and trypsin, bovine α-chymotrypsin), model protein substrate bovine α-casein, and secondary anti-rabbit IgG polyclonal goat antibodies conjugated to HRP and 3,3′,5,5′-tetramethylbenzidine (TMB) substrates were purchased from Sigma-Aldrich (St. Louis, MO, USA). Synthetic lysophospholipids (lyso-palmitoyl phosphatidylcholine (LPPC), lyso-palmitoyl phosphatidylglycerol (LPPG)) were purchased from Avanti Polar Lipids (Alabaster, AL, USA).
Sensitivity of Lc-def to digestive enzymes was examined by simulation of its gastrointestinal digestion in vitro. Gastric digestion was performed for 2 h, using 50 ng of pepsin per 1 μg of preheated at 100 °C for 30 min and intact Lc-def in 0.1 M HCl, pH 2.0. For duodenal digestion, the pH of the mixture resulting from gastric digestion was adjusted to 8.0 by addition of ammonium bicarbonate. The obtained mixture was incubated for 24 h at 37 °C with 2.5 ng of trypsin and 10 ng of α-chymotrypsin per 1 μg of the defensin. The degree of proteolysis was monitored by SDS-PAGE and RP-HPLC. Gel analysis was performed using Gel Doc XR^+ imaging system (Bio-Rad, Hercules, CA, USA) and Image Lab Software v.6.1.0 (Bio-Rad, Hercules, CA, USA). Some independent experiments were performed in each case. The experiment with α-casein was carried out for comparison.

[5] = C. albicans lysate 10^9 cells/mL, 40 mM sodium acetate pH 4.0, 37 °C, SDS-PAGE

Molecule | remaining at 24 h, 0.5 mg/mL ([1]; Candida albicans cell lysate supernatant (1 × 10^3 cells/mL), C. albicans lysate 10^3 cells/mL, pH 7.2, 37 °C, 24 h, densitometric gel analysis, read-out: intact peptide present in the hydrolysate) [%] | stability to proteolysis by yeast [1, 5] | stability to proteolysis by yeast ([1]; C. albicans lysate 10^9 cells/mL, PBS pH 7.2, 37 °C, SDS-PAGE, densitometry, immunoblotting) | influence on the rate of α-casein degradation [2] | Random, % [3] [%] | α-Helix, % [3] [%] | β-Sheet, % [3] [%] | β-Turn, % [3] [%] | growth inhibition of C. albicans (C. albicans) [%] | time after which the protein band was absent ([1]; C. albicans lysate 10^3 cells/mL, pH 7.2, 37 °C, SDS-PAGE) [h] | time to complete degradation ([1]; C. albicans lysate 10^9 cells/mL, pH 7.2, 37 °C, SDS-PAGE) [h] | time to almost complete degradation by pepsin [4] [min]
CC[C@H](C)[C@H](NC(=O)[C@H](CCCCN)NC(=O)[C@H](CCC(=O)O)NC(=O)[C@H](CCCCN)NC(=O)[C@H](CO)NC(=O)[C@H](CCCCN)NC(=O)[C@H](CCCNC(=N)N)NC(=O)[C@H](Cc1ccccc1)NC(=O)[C@H](Cc1ccccc1)NC(=O)[C@H](CC(=O)O)NC(=O)CNC(=O)[C@H](CC(C)C)NC(=O)[C@@H](N)CC(C)C)C(=O)NCC(=O)N[C@@H](CCCCN)C(=O)N[C@@H](CCC(=O)O)C(=O)N[C@@H](Cc1ccccc1)C(=O)N[C@@H](CCCCN)C(=O)N[C@@H](CCCNC(=N)N)C(=O)N[C@H](C(=O)N[C@H](C(=O)N[C@@H](CCC(N)=O)C(=O)N[C@@H](CCCNC(=N)N)C(=O)N[C@H](C(=O)N[C@@H](CCCCN)C(=O)N[C@@H](CC(=O)O)C(=O)N[C@@H](Cc1ccccc1)C(=O)N[C@@H](CC(C)C)C(=O)N[C@@H](CCCNC(=N)N)C(=O)N[C@@H](CC(N)=O)C(=O)N[C@@H](CC(C)C)C(=O)N[C@H](C(=O)N1CCC[C@H]1C(=O)N[C@@H](CCCNC(=N)N)C(=O)N[C@H](C(=O)N[C@@H](CCC(=O)O)C(=O)N[C@@H](CO)C(=O)O)[C@@H](C)O)C(C)C)[C@@H](C)CC)C(C)C)[C@@H](C)CC [LL-37, reference compound] | ~30 |  |  |  |  |  |  |  |  |  |  | 
Psd1: pea Pisum sativum defensin (UNIPROT P81929), recombinant (KTCEHLADTYRGVCFTNASCDDHCKNKAHLISGTCHNWKCFCTQNC; ends and bridges not checked; cysteine pairing not given here; UniProt P81929 1-46, looked up) [reference compound] |  | stable | stable | but not Psd1 decreased the rate of α-casein degradation | 30.7 | 14.8 | 31.8 | 22.8 | 100 |  |  | 
B1 |  | slow |  |  |  |  |  |  |  | ≤ 8 | ≤ 2 | ≤ 5

Source: PMC9503459, “Antifungal Activity, Structural Stability, and Immunomodulatory Effects on Human Immune Cells of Defensin from the Lentil Lens culinaris” (Membranes, 2022)
